The record followed here is publication PMC9599101 (Biosensors, 2022).

The target of assay [1] is T1, recombinant SEB produced by BEVS (staphylococcal enterotoxin B, 6x His-tagged) (Staphylococcus aureus., UniProt P01552).
T1 construct: not shown: His6, C-terminal, kept
Nature of the assay: BLI. To be noted: both partners purified.

Assay [2] has as its target T1, recombinant SEB produced by BEVS …. As to the kind of experiment: ELISA. As to conditions: both partners purified. A general note: In an ELISA, binding on a coated surface is turned into a signal by an enzyme label.
Assay [3] concerns the target natural SEB secreted from S. aureus strain CCARM 3089 (Staphylococcus aureus CCARM 3089, UniProt P01552, strain). Nature of the assay: ELISA. To be noted: one partner purified.
The target in assay [4] is natural SEB secreted from S. aureus strain SA2 (Staphylococcus aureus SA2 (bovine …, UniProt P01552, strain)). Nature of the assay: ELISA. As to conditions: one partner purified.

B1: anti-SEB monoclonal antibody 4-7A (antibody, V domains shown)
VH: QVQMQQSGAELVRPGASVKLSCKASGYTFTNNWMNWVKQRPGQGLQWIGMIDPSDSETHYNQMFKDKASLTVDKSSSSAYMVLSSLTSEDSAVYYCARRALSYYGSNPTLFDYWGQGTTLTVSS
VL: DIVMSQSPSSLAVSVGEKVTMSCKSSQSLLYSSNQKNYLAWYQQKPGQSPKLLIYWASTWESGVPDRFTGSGSGTNFTLTINSVKTEDLAVYYCQQYSGYPYTFGGGTKLELK
notes: also called 4-7A mAb
The Kd is the concentration at which binding is half-saturated. What is called koff is the rate constant with which the complex falls apart. One may read the kon as a measure of how fast the partners come together. The EC50 is the concentration giving half of the maximal effect. On to B1, for which, in assay [1], the equilibrium dissociation constant (Kd) was determined as 1.55 nM, the koff turned out to be 0.000226 s⁻¹ and the on-rate (kon) came out at 146000 M⁻¹ s⁻¹. Also, the EC50 in assay [2] amounted to 14.5 nM.

B2: anti-SEB monoclonal antibody 11-7E (antibody, V domains shown)
VH: QVQLKESGPELVRPGVSVKISCKGSGYTFTDYAMHWVKQSHAKSLEWIGIISTYSGNTNYNQKFKAKATMTVDKSSSTAYMELARLTSEDSAIYYCAREGYYGSSRSFDVWGAGTTLTVSS
VL: QIVLTQSPALMSASPGEKVTMTCSASSSVSYMYWYQQKPRSSPKPWIYLTSNLASGVPARFSGSGSGTSYSLTISSMEAEDAATYYCQQWSSNPLTFGAGTKLELK
notes: also called 11-7E mAb
For the molecule B2, in assay [1], the Kd is 0.331 nM, the dissociation rate constant (koff) amounted to 3.27e-05 s⁻¹ and the on-rate constant (kon) is 99000 M⁻¹ s⁻¹. For the same molecule, the binding result in assay [3] is “binds”. Moreover, in assay [4], the binding result was “binds”. Also, the EC50 in assay [2] came to 16.7 nM.

B3: anti-SEB monoclonal antibody 2-7A (antibody, V domains shown)
VH: EVLLVESGGGLVQPGGSLRLSCATSGFTFTDYYMSWVRQPPGKALEWLGFIRNKANGYTTKYSASVKGRFTISRDNSQSILYLQMNTLRAEDSATYYCAKDNWEAYFDYWGQGTTLTVSS
VL: DVVMTQTPLSLPVSLGDQASISCRSSQSIVHSNGNTYLEWYLQKPGQSPKLLIYKVSNRFSGVPDRFSGSGSGTDFTLKISRVEAEDLGVYYCFQGSHVPWTFGGGTKLELK
notes: also called 2-7A mAb
Take B3: in assay [1], the Kd came out at 0.55 nM, the dissociation rate constant (koff) amounted to 7.02e-05 s⁻¹ and the kon turned out to be 128000 M⁻¹ s⁻¹. Moreover, the EC50 in assay [2] came to 13.5 nM.
